According to patent publication US20170008928A1, “NOVEL PEPTIDES AND PEPTIDE DERIVATIVES AND USES THEREOF” (Novo Nordisk A/S, priority 2015, published 2017):

Key:
[1] = Plasma exposure after the last dose in DIO mini-pigs; assay type: in vivo, Göttingen mini-pigs; details: combination group, liraglutide […]
Method: The CCK derivative was dissolved in the following buffer: 8 mM phosphate, 184 mM propylene glycol, 58 mM phenol, pH 7.4 concentrations ranging from 2000-10000 nmol/mL corresponding to dose volumes ranging from 0.00075-0.001 mL/kg. Liraglutide was dissolved in 8 mM phosphate, 184 mM propylenglycol, 58 mM phenol, pH 8.15 (1600 nmol/mL), dose volume was 0.001 mL/kg and this formulation also served as a vehicle for all 3 treatment groups. Animals were dosed subcutaneously once daily with vehicle, CCK derivative, liraglutide, or liraglutide in combination with the CCK derivative (given as two separate injections in each side of the neck). After the last dose blood samples were obtained in EDTA coated tubes at selected time points for up to 480 hours after dosing. Blood was sampled through central-venous catheters implanted under general anaesthesia after 11 weeks of treatment.
The resulting plasma was pipetted into Micronic tubes on dry ice, and kept at −20° C. until analysed for plasma exposure of liraglutide and the CCK derivative. Plasma content of the CCK derivative was measured using LC-MS method II, as described in Example 93. Plasma content of liraglutide was measured using LOCI (Luminescence Oxygen Channeling Immunoasssay). LOCI is generally described for the determination of insulin by Poulsen and Jensen in Journal of Biomolecular Screening 2007, vol. 12, p. 240-247. The donor beads were coated with streptavidin, while acceptor beads were conjugated with a monoclonal antibody recognising a C-terminal epitope of the peptide. Another monoclonal antibody, specific for the N-terminus, was biotinylated. The three reactants were combined with the analyte and formed a two-sited immuno-complex. Illumination of the complex released singlet oxygen atoms from the donor beads, which were channelled into the acceptor beads and triggered chemiluminescence which was measured in an Envision plate reader. The amount of light was proportional to the concentration of the compound.

[2] = biological target: T1, human cholecystokinin-1 receptor (human, UniProt P32238 1-428); experiment: cell-based or functional assay
T1 sequence (looked up): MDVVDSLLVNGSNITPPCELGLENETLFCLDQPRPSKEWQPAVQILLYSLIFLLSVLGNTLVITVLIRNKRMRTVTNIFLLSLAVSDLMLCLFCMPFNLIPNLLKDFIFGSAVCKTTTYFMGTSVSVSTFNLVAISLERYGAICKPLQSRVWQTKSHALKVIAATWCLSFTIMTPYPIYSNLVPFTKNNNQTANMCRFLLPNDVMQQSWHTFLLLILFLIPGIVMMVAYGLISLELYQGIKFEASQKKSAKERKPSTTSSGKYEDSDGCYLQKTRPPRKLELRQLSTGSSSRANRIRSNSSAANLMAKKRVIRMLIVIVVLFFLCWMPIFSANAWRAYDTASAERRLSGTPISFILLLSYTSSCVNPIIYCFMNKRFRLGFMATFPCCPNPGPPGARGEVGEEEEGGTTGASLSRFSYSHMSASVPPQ

[3] = biological target: T2, human cholecystokinin-2 receptor (human, UniProt P32239 1-447); experiment: cell-based or functional assay
T2 sequence (looked up): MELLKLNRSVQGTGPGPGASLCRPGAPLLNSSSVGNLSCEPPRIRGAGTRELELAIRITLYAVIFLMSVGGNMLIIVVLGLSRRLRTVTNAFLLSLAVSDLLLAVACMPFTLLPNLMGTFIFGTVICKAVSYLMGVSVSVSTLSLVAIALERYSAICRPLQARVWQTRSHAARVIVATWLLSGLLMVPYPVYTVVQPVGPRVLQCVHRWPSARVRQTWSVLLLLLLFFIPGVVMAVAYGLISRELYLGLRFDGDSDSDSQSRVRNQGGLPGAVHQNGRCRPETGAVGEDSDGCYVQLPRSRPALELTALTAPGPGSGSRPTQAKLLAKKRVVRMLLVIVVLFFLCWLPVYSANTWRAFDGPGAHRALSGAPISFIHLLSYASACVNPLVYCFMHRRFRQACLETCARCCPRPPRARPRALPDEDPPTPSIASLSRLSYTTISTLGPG

[4] = biological target: T1, human cholecystokinin-1 receptor; experiment: ratio of SPA IC50s, reference CCK-2R

Row | AUCexposure (0-24 h) after last dose, Liraglutide [1] | CCK-1R selectivity (EC50 (CCK-2R)/EC50 (CCK-1R)) [2] | EC50 (CCK-1R) [2] [nM] | EC50 (CCK-2R) [3] [nM] | CCK-1R binding selectivity (IC50 (CCK-2R)/IC50 (CCK-1R)) [4] | Compound
1 | Liraglutide: 399872 pM*h | – | – | – | – | CCCCCCCCCCCCCCCC(=O)N[C@@H](CCC(=O)NCCCC[C@H](NC(=O)[C@H](C)NC(=O)[C@H](C)NC(=O)[C@H](CCC(N)=O)NC(=O)CNC(=O)[C@H](CCC(=O)O)NC(=O)[C@H](CC(C)C)NC(=O)[C@H](Cc1ccc(O)cc1)NC(=O)[C@H](CO)NC(=O)[C@H](CO)NC(=O)[C@@H](NC(=O)[C@H](CC(=O)O)NC(=O)[C@H](CO)NC(=O)[C@@H](NC(=O)[C@H](Cc1ccccc1)NC(=O)[C@@H](NC(=O)CNC(=O)[C@H](CCC(=O)O)NC(=O)[C@H](C)NC(=O)[C@@H](N)Cc1cnc[nH]1)[C@@H](C)O)[C@@H](C)O)C(C)C)C(=O)N[C@@H](CCC(=O)O)C(=O)N[C@@H](Cc1ccccc1)C(=O)N[C@H](C(=O)N[C@@H](C)C(=O)N[C@@H](Cc1c[nH]c2ccccc12)C(=O)N[C@@H](CC(C)C)C(=O)N[C@H](C(=O)N[C@@H](CCCNC(=N)N)C(=O)NCC(=O)N[C@@H](CCCNC(=N)N)C(=O)NCC(=O)O)C(C)C)[C@@H](C)CC)C(=O)O [Liraglutide, reference compound]
2 | – | 2100 | 0.14 | 290 | 84000 | Asp-sTyr-Nle-Gly-Trp-Nle-DMeAsp-1Nal-amide (peptide)
